# Data: patent publication US10696631B2 (priority 2016, dated 2020)
# Read-outs that look alike come from different tables or passages of the source.
# Legend:
# U87MG xenografts = assay: MicroPET imaging and biodistribution in U87MG xenografts
# Text: (§1) Female athymic nude mice (Harlan Laboratories) were housed in an animal facility under pathogen-free conditions. Tumor model was developed in 5 to 6 weeks old female athymic nude mice by injection of 5×10^6 cells into their right shoulders. The mice underwent small-animal PET studies when the tumor volume reached 300 mm^3 (14-20 days after inoculation), and received ^90Y radionuclide therapy when the tumor volume reached 150 mm^3 (10-14 days after inoculation).
# (§2) Blood, muscle, bone, liver, kidneys, spleen, intestine, heart and tumor were collected and wet-weighed. […] Radioactivity was measured in a γ-counter. The results were expressed % ID/g.
# [1] = mouse
# Protocol: The red blood cells were separated from the plasma using centrifugation (3500 rpm for 5 min). […] The extracted soup was taken, filter on 0.45 μm filter and injected into an analytical HPLC using system 1.
# MDA-MB-435 xenografts = details: mouse, in vivo
# Text: as §1, §2
# HT29 xenografts = details: mouse, in vivo
# Text: as §1, §2
# [2] = PET/CT and dosimetry calculation in healthy volunteers
# [3] = type: in vitro ADME, mouse
# Text: At each time point, an aliquot was taken and loaded on iTLC plate and developed in for RadioTLC measurements.
# HT29 cells = assay: Cellular uptake and internalization in HT29 cells; type: cell-based, human
# Protocol: (§3) All the cells were supplemented with 10% fetal bovine serum, 100 IU/mL penicillin, and […] streptomycin. Cells were grown in humidified atmosphere containing 5% CO2 at 37° C.
# [4] = human, in vivo
# glioblastoma [5] = assay: PET in a patient with WHO stage IV glioblastoma; details: GBM patient
# glioblastoma [6] = details: human, in vivo
# U87MG cells = system: U87MG cells
# Protocol: as §3
# HT29 tumor = type: in vivo, mouse; details: HT-29 tumor xenografts, 7.4 MBq
# Protocol: In order to test the specificity of ^90Y-DMEB-RGD radiotherapy to integrin αvβ3, the efficacy of 7.4 MBq ^90Y-DMEB-RGD in HT29 that expresses lower human integrin levels but has moderate expression of mouse integrin was tested (FIG. 6). […] Injection of HT29 tumor bearing mice with 7.4 MBq ^90Y-DMEB-RGD was compared in the same model to injection of saline (FIG. 18A). […] HT-29 treated and non-treated mice were sacrificed at day 26 post injection due to tumors ulcer.
# U87MG tumor [7] = assay: Histopathologic staining after targeted radiotherapy (CD31, Ki-67, TUNEL, H&E); type: in vivo, mouse
# Protocol: U87MG tumor samples from Groups A-F were collected and sectioned after the animals were sacrificed. […] After being washed three times with PBS, samples were mounted with DAPI for staining of cell nuclei (Vector). Fluorescence images were acquired with an epifluorescence microscope (200×; Olympus, X81).
# Immunofluorescent terminal deoxynucleotidetransferase-mediated biotin-dUTP labeling (TUNEL) analysis was done by use of a commercial available kit (Roche Applied Science). According to the manufacture's specifications, samples were fixed with 10% formalin and permeabilized by incubation with 0.1% Triton for 2 min on ice. After fixation and permeabilization, 50 μL of TUNEL reaction mixture were added on the samples. The slides were then incubated in a humidified atmosphere for 60 min at 37° C. in the dark. After rinsing with PBS and mounting with DAPI (Vector), samples were observed under an epifluorescence microscope using GFP channel.
# CD31 staining to evaluate tumor vasculature, Ki-67 staining to evaluate tumor proliferation and TUNEL staining to determine the DNA damage were done for all the six groups (A-F). For groups A, E and F that had large necrotic area, staining was focused on the tumor rim where tumor cells were alive.
# U87MG tumor [8] = assay: 18F-FDG and 18F-FLT PET imaging after 90Y radiotherapy; type: in vivo, mouse
# U87MG tumor [9] = assay: 90Y radiotherapy in U87MG tumor bearing mice; type: in vivo, mouse
# Text: NMEB-RGD was applied to integrin αvβ3 targeted radiotherapy. […] Similar pattern was observed after the second injection.
# [10] = human, intravenous administration, n = 3
structure (smiles),measurement,setting,value
Cc1cc(-c2ccc(NC(=O)CN3CCN4CCN(CC3)CC(=O)[O][64Cu][O]C(=O)C4)c(C)c2)ccc1N=Nc1ccc2c(S(=O)(=O)O)cc(S(=O)(=O)O)c(N)c2c1O [64Cu-NEB],tumor uptake,"U87MG xenografts; U87MG xenografts, 24 h p.i., PET",approximately 8 % ID/g
same,uptake in the tumor,"U87MG xenografts; U87MG xenografts, up to 4 h p.i.",6-7 % ID/g
same,order of tumor uptake among xenografts,"U87MG xenografts; U87MG, HT29 and MDA-MB-435 xenografts",U87MG>HT29>MDA-MB-435
same,accumulation in the blood compared with the other tracers,U87MG xenografts; all time points,highest accumulation in the blood at all time points
"Cc1cc(-c2ccc(NC(=O)[C@@H](CCCCNC(=O)CCN3C(=O)CC(SCC(=O)NCCCC[C@H]4NC(=O)[C@H](Cc5ccccc5)NC(=O)[C@H](CC(=O)O)NC(=O)CNC(=O)[C@H](CCCNC(=N)N)NC4=O)C3=O)NC(=O)CN3CCN(CC(=O)O)CCN(CC(=O)O)CC3)c(C)c2)ccc1/N=N/c1ccc2c(S(=O)(=O)O)cc(S(=O)(=O)O)c(N)c2c1O (some centres unmarked) [64Cu-NMEB-RGD, metal not drawn]",stability in the blood in vivo,[1],stable up to 4 h in the blood
same,radioactivity extraction bound to the blood proteins fraction,[1]; in vivo,Over 90%
same,tumor uptake compared with U87MG,MDA-MB-435 xenografts,significantly lower than U87MG at all time points
same,tumor uptake compared with U87MG,HT29 xenografts,significantly lower than U87MG at all time points
same,effective dose,[2]; healthy volunteers,0.1166 Rem/mCi
same,"Effective Dose Equivalent, Mean",[2]; [10],0.0454 mSv/MBq
same,"Effective Dose, Mean",[2]; [10],0.0315 mSv/MBq
same,"Estimated absorbed dose, Kidneys, Mean",[2]; [10],0.0994 mSv/MBq
same,exposure,[2]; subject injected with 8 mCi,0.933 Rem
same,"tumor accumulation, % ID/g max","U87MG xenografts; U87MG xenografts, 4 and 24 h p.i.",27-30 % ID/g
same,tumor uptake (max) higher than uptake of 64Cu-NOTA-c(RGDfk),"U87MG xenografts; mouse, in vivo",15 times
same,tumor uptake blocked by,"U87MG xenografts; mouse, in vivo",55-65%
same,stability in mouse serum (de-metalation),[3],stable in mouse serum for up to 24 h
same,cell uptake,HT29 cells,0.76±0.03%
same,accumulation in normal organs,[4],no undesired accumulation in normal organs
same,"Estimated absorbed dose, Adrenals, Mean",[4]; iv,0.0319 mSv/MBq
same,"Estimated absorbed dose, Brain, Mean",[4]; iv,0.0077 mSv/MBq
same,"Estimated absorbed dose, Breasts, Mean",[4]; iv,0.0241 mSv/MBq
same,"Estimated absorbed dose, Gallbladder Wall, Mean",[4]; iv,0.0346 mSv/MBq
same,"Estimated absorbed dose, Heart Wall, Mean",[4]; iv,0.0298 mSv/MBq
same,"Estimated absorbed dose, Liver, Mean",[4]; iv,0.1012 mSv/MBq
same,"Estimated absorbed dose, Lower Large Intestine Wall, Mean",[4]; iv,0.0291 mSv/MBq
same,"Estimated absorbed dose, Lungs, Mean",[4]; iv,0.0200 mSv/MBq
same,"Estimated absorbed dose, Muscle, Mean",[4]; iv,0.0127 mSv/MBq
same,"Estimated absorbed dose, Osteogenic Cells, Mean",[4]; iv,0.0528 mSv/MBq
same,"Estimated absorbed dose, Ovaries, Mean",[4]; iv,0.0294 mSv/MBq
same,"Estimated absorbed dose, Pancreas, Mean",[4]; iv,0.0647 mSv/MBq
same,"Estimated absorbed dose, Red Marrow, Mean",[4]; iv,0.0230 mSv/MBq
same,"Estimated absorbed dose, Skin, Mean",[4]; iv,0.0219 mSv/MBq
same,"Estimated absorbed dose, Small Intestine, Mean",[4]; iv,0.0545 mSv/MBq
same,"Estimated absorbed dose, Spleen, Mean",[4]; iv,0.1293 mSv/MBq
same,"Estimated absorbed dose, Stomach Wall, Mean",[4]; iv,0.0301 mSv/MBq
same,"Estimated absorbed dose, Testes, Mean",[4]; iv,0.0229 mSv/MBq
same,"Estimated absorbed dose, Thymus, Mean",[4]; iv,0.0261 mSv/MBq
same,"Estimated absorbed dose, Thyroid, Mean",[4]; iv,0.0248 mSv/MBq
same,"Estimated absorbed dose, Total Body, Mean",[4]; iv,0.0299 mSv/MBq
same,"Estimated absorbed dose, Upper Large Intestine Wall, Mean",[4]; iv,0.0317 mSv/MBq
same,"Estimated absorbed dose, Urinary Bladder Wall, Mean",[4]; iv,0.0268 mSv/MBq
same,"Estimated absorbed dose, Uterus, Mean",[4]; iv,0.0334 mSv/MBq
same,"T(max/N), tumor/non-tumor ratio",glioblastoma [5]; 0.5 h,8.36
same,"T(mean/N), tumor/non-tumor ratio",glioblastoma [5]; 0.5 h,4.13
same,Tumor-SUVmax,glioblastoma [5]; 0.5 h,1.84
same,Tumor-SUVmean,glioblastoma [5]; 0.5 h,0.91
same,"T(max/N), tumor/non-tumor ratio",glioblastoma [5]; 1 h,9.78
same,"T(mean/N), tumor/non-tumor ratio",glioblastoma [5]; 1 h,4.96
same,Tumor-SUVmax,glioblastoma [5]; 1 h,2.74
same,Tumor-SUVmean,glioblastoma [5]; 1 h,1.39
same,"T(max/N), tumor/non-tumor ratio",glioblastoma [5]; 8 h,25.35
same,"T(mean/N), tumor/non-tumor ratio",glioblastoma [5]; 8 h,13.05
same,Tumor-SUVmax,glioblastoma [5]; 8 h,5.07
same,Tumor-SUVmean,glioblastoma [5]; 8 h,2.61
same,"T(max/N), tumor/non-tumor ratio",glioblastoma [5]; 12 h,32.89
same,"T(mean/N), tumor/non-tumor ratio",glioblastoma [5]; 12 h,17.21
same,Tumor-SUVmax,glioblastoma [5]; 12 h,6.25
same,Tumor-SUVmean,glioblastoma [5]; 12 h,3.27
same,"T(max/N), tumor/non-tumor ratio",glioblastoma [5]; 20 h,63.33
same,"T(mean/N), tumor/non-tumor ratio",glioblastoma [5]; 20 h,34.5
same,Tumor-SUVmax,glioblastoma [5]; 20 h,3.8
same,Tumor-SUVmean,glioblastoma [5]; 20 h,2.07
same,"T(max/N), tumor/non-tumor ratio",glioblastoma [5]; 20.5 h,66.16
same,"T(mean/N), tumor/non-tumor ratio",glioblastoma [5]; 20.5 h,34.5
same,Tumor-SUVmax,glioblastoma [5]; 20.5 h,3.97
same,Tumor-SUVmean,glioblastoma [5]; 20.5 h,2.07
same,"T(mean/N), tumor/non-tumor ratio",glioblastoma [5]; 24 h,40.2
same,Tumor-SUVmax,glioblastoma [5]; 24 h,3.67
same,Tumor-SUVmean,glioblastoma [5]; 24 h,2.01
same,"T(max/N), tumor/non-tumor ratio",glioblastoma [6],73.4
same,cell uptake,"U87MG cells; U87MG cells, 4 h",1.86±0.22 % of total input
same,"cell uptake, effect of albumin in the medium",U87MG cells; all time points,significantly higher in the absence of albumin in the medium
same,internalization,U87MG cells; time points later than 5 min,most of ^64Cu-NMEB-RGD uptake was internalized
"Cc1cc(-c2ccc(NC(=O)[C@@H](CCCCNC(=O)CCN3C(=O)CC(SCC(=O)NCCCC[C@H]4NC(=O)[C@H](Cc5ccccc5)NC(=O)[C@H](CC(=O)O)NC(=O)CNC(=O)[C@H](CCCNC(=N)N)NC4=O)C3=O)NC(=O)CN3CCN(CC(=O)O)CCN(CC(=O)O)CCN(CC(=O)O)CC3)c(C)c2)ccc1/N=N/c1ccc2c(S(=O)(=O)O)cc(S(=O)(=O)O)c(N)c2c1O (some centres unmarked) [90Y-DMEB-RGD, metal not drawn]",tumor growth,HT29 tumor,delay of tumor growth
same,cell apoptosis (TUNEL staining),U87MG tumor [7]; group B 7.4 MBq,considerably more cell apoptosis
same,cell proliferation (Ki-67 staining),U87MG tumor [7]; group B 7.4 MBq,significantly reduced cell proliferation
same,tumor vasculature (CD31 staining),U87MG tumor [7]; group B 7.4 MBq,lesser than that in the other groups
same,"Hematoxylin and eosin staining, tumor necrosis","U87MG tumor [7]; group B, two doses of 7.4 MBq",most of the tumor area in Group B was already necrotic
same,"18F-FLT PET, tumor proliferation","U87MG tumor [8]; 5 and 12 days post initial treatment, group B 7.4 MBq",significant less 18F-FLT uptake
same,"18F-FDG PET, tumor metabolism",U87MG tumor [8]; 3 days post-injection,decreased metabolism
same,"18F-FDG PET, tumor metabolism","U87MG tumor [8]; 10 days post-treatment, group B 7.4 MBq",significant decreased metabolism
same,tumor volume,"U87MG tumor [9]; 1.75 MBq, second injection",No effect on the tumor volume
same,tumor volume,"U87MG tumor [9]; 3.7 MBq, second injection",Minor tumor shrink
same,survival compared with saline and 90Y-DOTA-c(RGDfK) groups,"U87MG tumor [9]; 7.4, 3.7 and 1.75 MBq groups",significant differences (p<0.01)
same,tumor volume compared with saline group,"U87MG tumor [9]; 7.4, 3.7 and 1.75 MBq groups, day 6 post treatment",significantly lower (p<0.01)
same,body weight loss,"U87MG tumor [9]; 7.4 MBq, day 2, regained at day 4",5%
same,tumor volume,"U87MG tumor [9]; 7.4 MBq, first injection",reduction of volume by day 8
same,tumor volume,"U87MG tumor [9]; 7.4 MBq, second injection 14 days post initial treatment",tumors almost disappeared up to 30 days post initial treatment
